In the supplement of paper PMC9170038:

Tested on: MS2 coat protein
Assay: apparent KD of MS2 coat protein; designed switch direction (-1 OFF switch, 1 ON switch): -1; higher = weaker reporter binding
Summary of the method: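 The reported apparent KD is a per-design median over clusters, from curve fits of normalised cluster fluorescence. Protein titrations used SNAP-549-labelled MS2 coat protein, doubled from 0.7 or 1.5 nM to 3 µM, in Tris-HCl pH 7.5 buffer with KCl, MgCl2, BSA, DTT, tRNA and Tween-20, with no input, 200 uM small-molecule ligand, or an oligonucleotide input. The RNA switches were transcribed on Illumina chips by stalled E. coli RNA polymerase.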

[1] = input ligand: microRNA oligo, concentration not stated
[2] = Eterna round: R95, input ligand: FMN 200 uM
[3] = Eterna round: R95, input ligand: microRNA oligo, concentration not stated
[4] = Eterna round: R95, input ligand: none

| Sequence | apparent KD of MS2 coat protein (input ligand: FMN 200 uM) [nM] | apparent KD of MS2 coat protein [1] [nM] | apparent KD of MS2 coat protein (input ligand: none) [nM] | apparent KD of MS2 coat protein [2] [nM] | apparent KD of MS2 coat protein [3] [nM] | apparent KD of MS2 coat protein [4] [nM] |
| --- | --- | --- | --- | --- | --- | --- |
| GUUGUUUAUGUAGGAUAUGCGAGGCGAGCCUAAGCAGAAGGACAUGAGGAUCACCCAUGUAUUGCGGUCUGCGUUCAGAUCGCU [salish99_ExNG1_r4_016] (Eterna round: R96, puzzle: Exclusion NG 1) | 183 | 19.2 | 26.9 | – | – | – |
| ACAAGCUUUUUGCUCGUCUACAUGAGGAUCACCCAUGUAGUGUGUUAGUGGUGAAGAUAGAUUGAGCGUAGUAGGUA [JR_SV3TOV1_Sub072] (puzzle: Sensor v3, turn-off variant 1) | – | – | – | 102 | 79.5 | 109 |
| AAGCCUCAAGUUAGGAUAUUAAUAAGGCAAAUUAUUAAGAAGGGACAUGAGGAUCACCCAUGUAAAAUUCUCAC [Biedredi] (Eterna round: R97, puzzle: Brourd's mod of Exclusion 4) | 140 | – | 57.5 | – | – | – |
| ACAUGAGGAUCACCCAUGUCCGGCUGGUCUGUCUCGGCUGUCGAGGAUAUAGCACGGUAUCCGCGCUAGAAGGCGGGAGCCGGG [Aenatbe mod 88] (Eterna round: R96, puzzle: Exclusion NG 3) | 237 | 127 | 193 | – | – | – |
| CUUAAUUGUCACAUGGGUGACAUGAGGAUCACCCAUGUCACAAGCUUUUUGUUCGUCUUAUAAUUAACCCAUGUGAC [Stov1/12-B3] (Eterna round: R97, puzzle: Sensor, turn-off variant 1) | 13.8 | – | 13.7 | – | – | – |
| UGUUGUCGCGUAGGAUAUGGCCAACAGGCCGUAGGAUAUGGGAAACCAGAAGGACCGCCAACAGGCGAGAAGGACGGGACAACU [pwkr exNG2 2xF7 2xFMN.21] (Eterna round: R96, puzzle: Exclusion NG 2) | 127 | 49.4 | 72 | – | – | – |
| AUGAGACAUGAGGAUCACCCAUGUGAGGAUAUGUAUGGAUGGAGGAAAGAAUGAGAGAACAGAAGGCACGGAGG [JR_Exclu1_Sub065] (puzzle: Exclusion 1) | – | – | – | 70.7 | 72.7 | 112 |
| CUGCUGGAGCUUUGCUUUGGUCGUACAUGAGGAUCACCCAUGUAGGAUAUGGUAAAAUUUGCUUGCUAGAAGGAUAGAGUGGUC [salish99_ExNG3_r04_612] (Eterna round: R96, puzzle: Exclusion NG 3) | 88.1 | 34.3 | 42.4 | – | – | – |
| AGAUGGCGAGGAUAUACAUGAGGAUCACCCAUGUGAGAUAAUAAAGUGAGGAAGAAAAGUAGAAGGCGCUGUCA [Mat - Exclusion 3 - Mod of Salish D13] (puzzle: Exclusion 3) | – | – | – | 221 | 53.7 | 56.8 |
| CGUGACUGAGGAUAUCUAUAUUAUCACAUGAGGAUCACCCAUGUCCAGCGAAAGCUGGAGGGAGAAGGCAGUCACG [Fiskers Ex 5 - 28] (puzzle: Exclusion 5) | – | – | – | 17.1 | 49.8 | 32.4 |
| ACAUGUCAUCGAGGAUAUUGGACACAUGAGGAUCACCCAUGUACUCGGAGGCUCUACUAUGAGUUCGAGAAGGCGAUGUACAUG [Ex NG2 #75] (Eterna round: R96, puzzle: Exclusion NG 2) | 355 | 45.4 | 49.9 | – | – | – |
| CUGAUGUCAGGAUAUCGGUGGCUCACUUGUGUGUGCCAGUUCGAGAAGGGACAUGAGGAUCACCCAUGUUUUUA [Exclusion 4 (Mod2 of #36 by Marzena11)] (Eterna round: R97, puzzle: Exclusion 4) | 486 | – | 75.2 | – | – | – |
| AAUUCACAUGAGGAUCACCCAUGUCAGGAUAUGGUUUCACGUUUUUCUUUUCUUGAGGCCAGAAGGGACAGCUA (puzzle: Exclusion 1) | – | – | – | – | 60.1 | – |
| AUUAGCGUAGGAUAUUGAAACAUGUACAUGAGGAUCACCCAUGUGAGGUGAGUCUUCGUUUAAGAAGGGCGCAGAA [EX5 #40] (Eterna round: R97, puzzle: Exclusion 5) | 213 | – | 1030 | – | – | – |
| UGACCUUUUGUCAGGAUAUAUAUACGUGUUGGUAGGUAGAAGGGACAUGAGGAUCACCCAUGUGGUUUGAGCUA [Eternabot (L1) Solution 74] (Eterna round: R97, puzzle: Brourd's mod of Exclusion 4) | 433 | – | 155 | – | – | – |
| GACCUCACGGUCAGGAUAUCAGAACGUAAUGCGCAUGAGAAGGGACAUGAGGAUCACCCAUGUGGGCUCGUCGC [Maedvequ] (puzzle: Brourd's mod of Exclusion 4) | – | – | – | – | 11.8 | – |
| ACAAGCUUUUUGUUCGUCUUAUAAAAUCCUAAGAGGAAAACAUGAGGAUCACCCAUGUAACAAAGACGGACUCAUGU [Sesor Array 12 - Jieux - Sensor v3, turn-off variant 2] (Eterna round: R96, puzzle: Sensor v3, turn-off variant 2) | 11.5 | 99.1 | – | – | – | – |

| Sequence | apparent KD of MS2 coat protein (input ligand: FMN 200 uM) [nM] | apparent KD of MS2 coat protein [1] [nM] | apparent KD of MS2 coat protein (input ligand: none) [nM] | apparent KD of MS2 coat protein [2] [nM] | apparent KD of MS2 coat protein [3] [nM] | apparent KD of MS2 coat protein [4] [nM] |
| --- | --- | --- | --- | --- | --- | --- |
| AGUCCACAUGAGGAUCACCCAUGUCAGGAUAUACGCAAUACAAAAGAACCCAUCAAAAGUAGAAGGGACAGGGA [Getequ] (puzzle: Exclusion 1) | – | – | – | 13.5 | 10 | 9.06 |
| AUAGGGUCAGGAUAUACGAGCAGGAGGAUGGAGCGGAGGCGGUAGAAGGGACAUGAGGAUCACCCAUGUAAGAA [JR_Exclu4_Sub052] (puzzle: Exclusion 4) | – | – | – | 21.4 | 16.3 | 19.2 |
| GGUGCGUGUGUGAGGAUAUGCUGGUCCUUGGAUCAGCAGAAGGCACAUGAGGAUCACCCAUGUGGUGUCGUACC [salish99_Bmod_Ex4_029] (puzzle: Brourd's mod of Exclusion 4) | – | – | – | – | 232 | – |
| CAUGUCUGAGGAUAUCGUUUUUUGUACAUGAGGAUCACCCAUGUCCUAUUUUUUUUAUUUCGAGAAGGCAGUGUAU [JR_E5_Sub092] (puzzle: Exclusion 5) | – | – | – | – | 32.6 | – |
| CCUCCGCAUUAGGAUAUCGUCCCGGAAACGGGACGAGAAGGAAUGACAUGAGGAUCACCCAUGUUAACGUGAUG [Mod of Brourd 18 - Jieux - Exclusion 6] (Eterna round: R97, puzzle: Exclusion 6) | 304 | – | 48.2 | – | – | – |
| UAGACCUCGUCAGGAUAUCCAGGUUCUUCGCCCGGAGAAGGGACAUGAGGAUCACCCAUGUAGGAGAGCAUCGCUGUCGAGCAA [Redixeri] (Eterna round: R96, puzzle: Exclusion NG 1) | 19.3 | 11.5 | 18.3 | – | – | – |
| UAAUAUCUGCAGGAUAUCGGUGGAGCACACGUAUGAGAAGGGCAGACAUGAGGAUCACCCAUGUAUAGGGUCCG [BotMod 3 - Jieux - Exclusion 6] (Eterna round: R97, puzzle: Exclusion 6) | 136 | – | 37.7 | – | – | – |
| AAUAACAAGCAGAUCCUAAACAUGAGGAUCACCCAUGUGCUCGUCUUGUAAAGUACUAUCACGAAAGUGAUAGUACA [Sensor 3, v1 - 59] (puzzle: Sensor v3, turn-off variant 1) | – | – | – | 67.5 | 186 | 76.5 |
| AAGAAGCGAGGAUAUGCAAAAGAAAAGAAGAAGAAGAAAGAACAUGAGGAUCACCCAUGUAGAAGGCGCAAGAA [Mine, too!] (puzzle: Exclusion 2) | – | – | – | 19.8 | 20.8 | 22.2 |
| GGUGGGCUAGGAUAUGCUUUGGGAGGGCAUUCCUUCGAUAAACUUGAGGAUCACCCAAGUAGAAGGAGCUUGCC [salish99_ex2_r4_022] (Eterna round: R97, puzzle: Exclusion 2) | 33.9 | – | 15.3 | – | – | – |
| AGAGAAUACUCAGGAUAUCUGAAUAGAAAGAGAAGAGAAGGGAGACAUGAGGAUCACCCAUGUGAAGUCUUGAGACUACAUGGU [Prohibition 27 - Jieux - Exclusion NG 1] (Eterna round: R96, puzzle: Exclusion NG 1) | – | 225 | – | – | – | – |
| UCGACGUAAGGAUAUAUAAGGAACGAAGUAAGUUGUAGAAAAUAGAAGGUACAUGAGGAUCACCCAUGUUAAGA [JR_Exclu4_Sub061] (puzzle: Exclusion 4) | – | – | – | 19.4 | 19.6 | 18.9 |
| CCGUGCACGCUGCGGUCCUACAUGAGGAUCACCCAUGUGGUCUGGUGGCGUGGGUCGCCGGACUUGGCUCGUCUUGA [salish99_S_TOV1_R5_021] (Eterna round: R97, puzzle: Sensor, turn-off variant 1) | 18.8 | – | 19.2 | – | – | – |
| CUAGCUUCGGCUAGUACAAGCUUUUUGCUCGUCUUAUUAACAUGAGGAUCACCCAUGUACAAGAGACCUCAUGUAUU [Sensor v3 - turn-off variant 2 - 10] (puzzle: Sensor v3, turn-off variant 2) | – | – | – | 188 | 14.6 | 249 |
| AUAUUACGAGGAUAUCGUUUUUUUCACAUGAGGAUCACCCAUGUUAUCCAUGUUUCGUUUCGAGAAGGCGUAAGUU [JR_E5_Sub070] (puzzle: Exclusion 5) | – | – | – | – | 46.9 | – |
| GAUUAUGCGAGCUUUAGGGACAUGAGGAUCACCCAUGUUCGUCUUAUUGAUCUGGAUGCACUGACAUACCUAAAUCU [JMF 80] (puzzle: Sensor v3, turn-off variant 1) | – | – | – | 29 | 37.5 | 28.3 |
| CUCACGUCAGGAUAUCUACAUUAAAUUGGUAACCAAGCAUGAGAGAAGGGACAUGAGGAUCACCCAUGUAAAAC [Ceisusma] (Eterna round: R97, puzzle: Exclusion 4) | 42.4 | – | 48.7 | – | – | – |
